Test system: Escherichia coli TOP10
Assay: shrunken log2 fold change of peptide-encoding DNA abundance (4.5 h post-induction vs induction); higher = less antimicrobial activity (less host growth inhibition)
Conditions: time post-induction: 4.5 h; library: site-saturation at positions 5, 18, 19, 20
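Further: peptides expressed intracellularly from a pBAD plasmid library in pooled LB shake-flask culture, induced with 0.3% L-arabinose, DNA abundance read by NGS, three biological replicates, DESeq2 with apeglm shrinkage.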

Row | Sequence | shrunken log2 fold change
1 | RRIRIRPPRLPRPRPRPACFPRP | 0.199
2 | RRIRNRPPRLPRPRPRPYYMPRP | -0.416
3 | RRIRQRPPRLPRPRPRPMGGPRP | 0.0922
4 | RRIRGRPPRLPRPRPRPRGFPRP | 0.817
5 | RRIRDRPPRLPRPRPRPDLYPRP | 0.309
6 | RRIRIRPPRLPRPRPRPIDLPRP | -0.179
7 | RRIRKRPPRLPRPRPRPGMVPRP | 0.8
8 | RRIRFRPPRLPRPRPRPFTFPRP | -0.41
9 | RRIRNRPPRLPRPRPRPDLQPRP | -0.0156
10 | RRIRHRPPRLPRPRPRPMFFPRP | -0.347
11 | RRIRRRPPRLPRPRPRPQLCPRP | 0.559
12 | RRIRSRPPRLPRPRPRPPVQPRP | 0.319
13 | RRIRIRPPRLPRPRPRPHHDPRP | -0.515
14 | RRIRRRPPRLPRPRPRPRGCPRP | 0.984
15 | RRIRIRPPRLPRPRPRPGYEPRP | -0.237
16 | RRIRTRPPRLPRPRPRPWHYPRP | -0.268
17 | RRIRRRPPRLPRPRPRPKTPPRP | 0.782
18 | RRIRFRPPRLPRPRPRPMFIPRP | -0.443
19 | RRIRNRPPRLPRPRPRPPQIPRP | 0.013
20 | RRIRARPPRLPRPRPRPPYKPRP | 0.0849
21 | RRIRERPPRLPRPRPRPERRPRP | -0.0345
22 | RRIRHRPPRLPRPRPRPVQEPRP | -0.0785
23 | RRIRNRPPRLPRPRPRPLRMPRP | 0.361
24 | RRIRTRPPRLPRPRPRPNYPPRP | -0.0192
25 | RRIRERPPRLPRPRPRPPGNPRP | 0.106

Row | Sequence | shrunken log2 fold change
26 | RRIRNRPPRLPRPRPRPVTMPRP | -0.514
27 | RRIRSRPPRLPRPRPRPIEGPRP | -0.0107
28 | RRIRVRPPRLPRPRPRPTKEPRP | -0.0294
29 | RRIRPRPPRLPRPRPRPLPMPRP | 0.53
30 | RRIRKRPPRLPRPRPRPFTEPRP | 0.0246
31 | RRIRIRPPRLPRPRPRPEAVPRP | 0.0843
32 | RRIRVRPPRLPRPRPRPKRKPRP | 0.376
33 | RRIRLRPPRLPRPRPRPYYEPRP | -0.493
34 | RRIRHRPPRLPRPRPRPDNYPRP | -0.0274
35 | RRIRARPPRLPRPRPRPRGWPRP | 1.07
36 | RRIRTRPPRLPRPRPRPCAQPRP | -0.05
37 | RRIRSRPPRLPRPRPRPKAAPRP | 0.252
38 | RRIRFRPPRLPRPRPRPGACPRP | -0.0223
39 | RRIRERPPRLPRPRPRPQFWPRP | 0.172
40 | RRIRERPPRLPRPRPRPVYRPRP | -0.514
41 | RRIRNRPPRLPRPRPRPVCDPRP | 0.0842
42 | RRIRCRPPRLPRPRPRPIPEPRP | 0.00841
43 | RRIRQRPPRLPRPRPRPVYDPRP | -0.228
44 | RRIRSRPPRLPRPRPRPDRNPRP | -0.228
45 | RRIRWRPPRLPRPRPRPLPNPRP | 0.783
46 | RRIRLRPPRLPRPRPRPTIGPRP | -0.192
47 | RRIRDRPPRLPRPRPRPFSRPRP | -0.164
48 | RRIRHRPPRLPRPRPRPQFCPRP | -0.208
49 | RRIRIRPPRLPRPRPRPRKDPRP | -0.387
50 | RRIRGRPPRLPRPRPRPWCLPRP | -0.262

Row | Sequence | shrunken log2 fold change
51 | RRIRCRPPRLPRPRPRPATLPRP | -0.154
52 | RRIRMRPPRLPRPRPRPLFDPRP | 0.201
53 | RRIRFRPPRLPRPRPRPKICPRP | -0.0416
54 | RRIRPRPPRLPRPRPRPSGAPRP | 0.345
55 | RRIRARPPRLPRPRPRPIVRPRP | -0.146
56 | RRIRLRPPRLPRPRPRPDIRPRP | -0.15
57 | RRIRRRPPRLPRPRPRPLWEPRP | 0.378
58 | RRIRIRPPRLPRPRPRPAPEPRP | 1.9
59 | RRIRLRPPRLPRPRPRPQNLPRP | -0.149
60 | RRIRVRPPRLPRPRPRPYVFPRP | -0.136
61 | RRIRVRPPRLPRPRPRPFRRPRP | -0.101
62 | RRIRFRPPRLPRPRPRPVTAPRP | -0.0836
63 | RRIRGRPPRLPRPRPRPKMVPRP | 0.79
64 | RRIRCRPPRLPRPRPRPFLCPRP | -0.786
65 | RRIRCRPPRLPRPRPRPYLIPRP | -0.233
66 | RRIRFRPPRLPRPRPRPGRWPRP | 0.653
67 | RRIRWRPPRLPRPRPRPTAFPRP | 0.276
68 | RRIRDRPPRLPRPRPRPNHDPRP | -0.312
69 | RRIRQRPPRLPRPRPRPVMEPRP | -0.028
70 | RRIRKRPPRLPRPRPRPVLGPRP | 0.977
71 | RRIRPRPPRLPRPRPRPQDLPRP | -0.13
72 | RRIRCRPPRLPRPRPRPYLLPRP | -0.559
73 | RRIRWRPPRLPRPRPRPQWLPRP | 0.275
74 | RRIRTRPPRLPRPRPRPMGHPRP | -0.118
75 | RRIRTRPPRLPRPRPRPTTWPRP | -0.0444
